Data as given in patent US20230399394A1 (SUNSHINE GUOJIAN PHARMACEUTICAL SHANGHAI, published 2023).

T1: Pep13 (human, N-terminal biotin)
T1 construct: Synthetic 20-mer of human IL-33
T1 peptide: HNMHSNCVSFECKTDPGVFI

T2: Pep10 (human, N-terminal biotin)
T2 construct: Synthetic 20-mer of human IL-33
T2 peptide: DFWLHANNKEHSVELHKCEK

T3: Pep9 (human, N-terminal biotin)
T3 construct: Synthetic 20-mer of human IL-33
T3 peptide: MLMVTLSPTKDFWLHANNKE

T4: Pep3 (human, N-terminal biotin)
T4 construct: Synthetic 20-mer of human IL-33
T4 peptide: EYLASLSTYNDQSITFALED

T5: Pep1 (human, N-terminal biotin)
T5 construct: Synthetic 20-mer of human IL-33
T5 peptide: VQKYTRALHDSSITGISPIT

T6: Pep16 (human, N-terminal biotin)
T6 construct: Synthetic 20-mer of human IL-33
T6 peptide: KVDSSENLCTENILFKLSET

T7: Pep14 (human, N-terminal biotin)
T7 construct: Synthetic 20-mer of human IL-33
T7 peptide: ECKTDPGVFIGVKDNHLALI

T8: Pep5 (human, N-terminal biotin)
T8 construct: Synthetic 20-mer of human IL-33
T8 peptide: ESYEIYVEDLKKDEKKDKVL

T9: Pep8 (human, N-terminal biotin)
T9 construct: Synthetic 20-mer of human IL-33
T9 peptide: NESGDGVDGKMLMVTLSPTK

T10: Pep12 (human, N-terminal biotin)
T10 construct: Synthetic 20-mer of human IL-33
T10 peptide: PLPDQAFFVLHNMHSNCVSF

T11: Pep4 (human, N-terminal biotin)
T11 construct: Synthetic 20-mer of human IL-33
T11 peptide: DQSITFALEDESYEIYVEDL

T12: Pep11 (human, N-terminal biotin)
T12 construct: Synthetic 20-mer of human IL-33
T12 peptide: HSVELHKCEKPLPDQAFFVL

T13: Pep2 (human, N-terminal biotin)
T13 construct: Synthetic 20-mer of human IL-33
T13 peptide: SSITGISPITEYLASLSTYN

T14: Pep15 (human, N-terminal biotin)
T14 construct: Synthetic 20-mer of human IL-33
T14 peptide: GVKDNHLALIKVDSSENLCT

T15: Pep7 (human, N-terminal biotin)
T15 construct: Synthetic 20-mer of human IL-33
T15 peptide: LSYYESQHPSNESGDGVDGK

T16: IL-33 mutant protein L51A (human, UniProt O95760 112-270)
T16 construct: Prokaryotic expression
T16 chain: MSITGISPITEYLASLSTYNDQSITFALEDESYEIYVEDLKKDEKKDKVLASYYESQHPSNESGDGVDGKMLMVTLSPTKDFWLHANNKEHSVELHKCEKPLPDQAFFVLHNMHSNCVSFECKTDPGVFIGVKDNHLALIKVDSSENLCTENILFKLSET


Tests used:
[1] = molecular target: T1, Pep13; experiment: ELISA, biotinylated peptide on streptavidin plate
Description: (§1) To determine the binding activity of antibody to each polypeptide fragment, the ELISA plate was pre-coated by biotin-avidin (SA) which was diluted in coating solution (50 mM carbonate coating buffer, pH 9.6) to 2 μg/ml at 4° C. overnight. The plate was washed with PBST for 3 times, and then blocked with 2% BSA prepared in PBS at room temperature for 2 h with 200 μL/well. The plate was washed once with PBST, and 864F3 and 874F7 with final concentrations of 10 μg/mL were added at 100 μL/well, respectively, and the plate was incubated at room temperature for 1 h. The plate was washed with PBST for 3 times, and the goat anti-mouse IgG labeled by HRP was added and placed at 37° C. for 30 min. After washing the plate with PBST for 3 times, the plate was patted on the absorbent paper to remove residual droplets as far as possible. 100 μl TMB developing solution was added to each well, and the plate was placed at room temperature (20±5° C.) for 5 minutes away from light; 50 μl 2M H₂SO₄ terminating solution was added to each well to terminate the substrate reaction. OD values were read at 450 nm on the microplate reader to analyze the binding ability of the antibody to each polypeptide fragment. The experimental results are shown in […]

[2] = molecular target: T2, Pep10; experiment: ELISA, biotinylated peptide on streptavidin plate
Description: as §1

[3] = molecular target: T3, Pep9; experiment: ELISA, biotinylated peptide on streptavidin plate
Description: as §1

[4] = molecular target: T4, Pep3; experiment: ELISA, biotinylated peptide on streptavidin plate
Description: as §1

[5] = molecular target: T5, Pep1; experiment: ELISA, biotinylated peptide on streptavidin plate
Description: as §1

[6] = molecular target: T6, Pep16; experiment: ELISA, biotinylated peptide on streptavidin plate
Description: as §1

[7] = molecular target: T7, Pep14; experiment: ELISA, biotinylated peptide on streptavidin plate
Description: as §1

[8] = molecular target: T8, Pep5; experiment: ELISA, biotinylated peptide on streptavidin plate
Description: as §1

[9] = molecular target: T9, Pep8; experiment: ELISA, biotinylated peptide on streptavidin plate
Description: as §1

[10] = molecular target: T10, Pep12; experiment: ELISA, biotinylated peptide on streptavidin plate
Description: as §1

[11] = molecular target: T11, Pep4; experiment: ELISA, biotinylated peptide on streptavidin plate
Description: as §1

[12] = molecular target: T12, Pep11; experiment: ELISA, biotinylated peptide on streptavidin plate
Description: as §1

[13] = molecular target: T13, Pep2; experiment: ELISA, biotinylated peptide on streptavidin plate
Description: as §1

[14] = molecular target: T14, Pep15; experiment: ELISA, biotinylated peptide on streptavidin plate
Description: as §1

[15] = molecular target: T15, Pep7; experiment: ELISA, biotinylated peptide on streptavidin plate
Description: as §1

[16] = molecular target: T16, IL-33 mutant protein L51A; experiment: ELISA as Example 9; row L51A against WT-2
Description: SA protein was diluted to 2 μg/mL to coat ELISA plate at 100 μL/well overnight at 4° C. The plate was washed with PBST (PBS containing 0.05% Tween20) for 3 times, and blocked with 2% BSA prepared in PBS at 200 μL/well, at room temperature for 2 h. After the plate was washed twice with PBST, IL-33-his-biotin protein was diluted to 1 μg/mL with 1% BSA prepared in PBST, and was added to ELISA plate at 100 μL/well. The plate was incubated at room temperature for 1 h, and each monoclonal antibody was diluted with 1% BSA prepared in PBST in a 3-fold gradient. The highest concentration of antibody was 10 μg/mL, and the antibody was diluted for 12 gradients. Each diluted monoclonal antibody was added to ELISA wells with 100 μL/well, and the plate was incubated at room temperature for 1 h. Each sample was added to duplicate wells in parallel. The plate was washed with PBST for 3 times, and HRP-anti human IgG Fc secondary antibody prepared with PBST was diluted at an appropriate ratio, and was added to ELISA wells at 100 μL/well. […] Each reaction solution was shaken uniformly and OD450 nm was read on a microplate reader. The data was analyzed and EC₅₀ was calculated.
Subsequently, according to the experimental method of Example 9, the affinity of the above mutant proteins to 874F7-Hu1 was determined, and IL-33 proteins (WT-1, WT-2, WT-3, and WT-4) without any mutation were set as controls.

| binding result [1] | binding result [2] | binding result [3] | binding result [4] | binding result [5] | binding result [6] | binding result [7] | binding result [8] | binding result [9] | binding result [10] | binding result [11] | binding result [12] | binding result [13] | binding result [14] | binding result [15] | Affinity decline ratio [16] [fold] | Binder |
| --- | --- | --- | --- | --- | --- | --- | --- | --- | --- | --- | --- | --- | --- | --- | --- | --- |
| no binding (tested: 10 µg/mL) | no binding (tested: 10 µg/mL) | no binding (tested: 10 µg/mL) | no binding (tested: 10 µg/mL) | no binding (tested: 10 µg/mL) | no binding (tested: 10 µg/mL) | no binding (tested: 10 µg/mL) | no binding (tested: 10 µg/mL) | no binding (tested: 10 µg/mL) | no binding (tested: 10 µg/mL) | no binding (tested: 10 µg/mL) | no binding (tested: 10 µg/mL) | no binding (tested: 10 µg/mL) | no binding (tested: 10 µg/mL) | no binding (tested: 10 µg/mL) | – | 874F7 (antibody, V domains shown, Murine hybridoma antibody purified on Protein G; also called murine antibody 874F7) VH: QVQLKESGPGLVAPSHSLSITCNVSGFSLSKYGVHWIRQIPGRGLDWLGVLRAGGSTGYNSALMSRLSISKDSSKSQVFLKMNDLRTDDTAVYFCVRDHYYYSSYGGFVYWGQGTLVTVSA VL: DIQMTQSPASQSASLGESVTITCLASQTIGAWLAWYRQQPGKSPQLLIYAATRLADGVPSRFSGSGSGTEFSFKINNLQAEDFVSYYCQQLDSSPYTFGGGTRLEM |
| – | – | – | – | – | – | – | – | – | – | – | – | – | – | – | 6.8 | 874F7-Hu1 (antibody, human IgG4 S228P, kappa, also called 874F7-Hul; humanized antibody 874F7-Hu1) heavy: not shown light: DIQMTQSPSSVSASVGDRVTITCLASQTIGAWLAWYQQKPGKSPKLLIYAATRLADGVPSRFSGSGSGTDFTLTISSLQPEDFATYYCQQLDSSPYTFGQGTKVEIKRTVAAPSVFIFPPSDEQLKSGTASVVCLLNNFYPREAKVQWKVDNALQSGNSQESVTEQDSKDSTYSLSSTLTLSKADYEKHKVYACEVTHQGLSSPVTKSFNRGEC |
